Data as given in patent US20250011448A1 (STAIDSON BIOPHARMA, published 2025).
Residue numbers refer to the chain shown, from its start.

Legend:
[1] = biological target: T1, human TNFR2 extracellular domain with C-terminal 10×His tag (human, UniProt P20333 23-257); assay: BLI (Octet RED96), antibody captured on AHC biosensor, His-tag-huTNFR2 in solution, 1:1 model
T1 construct: also called huTNFR2-His; His-tag-huTNFR2
T1 sequence: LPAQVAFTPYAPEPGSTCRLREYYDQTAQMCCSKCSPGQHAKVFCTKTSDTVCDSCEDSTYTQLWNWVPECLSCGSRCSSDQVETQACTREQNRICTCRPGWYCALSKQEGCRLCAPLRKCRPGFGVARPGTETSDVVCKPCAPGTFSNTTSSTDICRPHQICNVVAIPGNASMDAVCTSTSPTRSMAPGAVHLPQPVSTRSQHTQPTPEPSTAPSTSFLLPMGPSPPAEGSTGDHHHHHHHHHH
Method: (§1) The following kinetic assay was performed using anti-human IgG Fc capture (AHC) biosensors (ForteBio) in kinetics buffer (PBS, 0.1% Tween-20 and 1% bovine serum albumin): (a) antibody (2 μg/mL) for 300 sec, (b) baseline for 120 sec, (c) association with His-tag-huTNFR2 (2.5, 0.5 and 0 μg/mL) for 420 sec and (d) dissociation for 1200 sec. Data fitting and analysis was performed with Octet data analysis software 8.0 (ForteBio) using a 1:1 binding model after Savitzky-Golay filtering. The dissociation constant (Kd) was calculated as the ratio of Koff/Kon.

[2] = biological target: T2, human TNFR2 expressed on cells (Expi293 cells stably expressing huTNFR2) (human, UniProt P20333 23-461); assay: flow cytometry on Expi293 cells stably expressing huTNFR2, y axis TNFR2 binding (MFI)
T2 construct: whole, on cells; Also used here as the target of the Treg assay (native TNFR2 on human primary Treg cells); also called huTNFR2 expressed cells; Expi293-TNFR2 cells
T2 sequence (looked up): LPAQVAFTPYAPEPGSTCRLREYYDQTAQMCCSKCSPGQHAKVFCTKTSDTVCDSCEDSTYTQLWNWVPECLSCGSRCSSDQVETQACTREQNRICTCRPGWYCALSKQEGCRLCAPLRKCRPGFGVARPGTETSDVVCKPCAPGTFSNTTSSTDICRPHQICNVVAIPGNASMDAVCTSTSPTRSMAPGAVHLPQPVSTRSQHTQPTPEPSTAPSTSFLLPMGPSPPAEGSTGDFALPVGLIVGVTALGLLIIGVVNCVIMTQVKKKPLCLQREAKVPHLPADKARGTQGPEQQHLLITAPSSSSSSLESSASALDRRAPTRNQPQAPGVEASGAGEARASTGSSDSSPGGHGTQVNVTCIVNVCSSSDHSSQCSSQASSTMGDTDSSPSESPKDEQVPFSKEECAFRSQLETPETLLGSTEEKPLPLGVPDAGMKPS
Method: The coding sequence of huTNFR2 (Uniprot, P20333) was cloned into a lentiviral vector and the virus was packaged according to the instruction of the virus packaging kit (Lenti-X™ Packaging Single Shots, Cat #631275, Takada). The Expi293 cells were transduced with the recombinant virus and selected by puromycin. The cell line stably expressing huTNFR2 was incubated with anti-TNFR2 antibodies in PBS with 0.5% BSA, 1 mM EDTA, and 0.1% sodium azide (FACS buffer) for 30 minutes at 4° C. The cells were washed, and then incubated with 10 nM phycoerythrin (PE) conjugated anti-Human Fe Ab (Biolegend, cat #409304) for 20 minutes at 4° C. Cells were washed and then […] by flow cytometry with Attune (ThermoFisher Scientific). Data were analyzed with FlowJo software. Antibody binding is represented as median fluorescence intensity (MFI).
FACS based binding and blocking assays of humanized antibodies were performed as described above.

[3] = biological target: T3, cynomolgus monkey TNFR2 extracellular domain with C-terminal 10×His tag (cynomolgus monkey, UniProt P20333 23-257 (human entry)); assay: ELISA, plate coated with His-tagged TNFR2 ECD, serial dilution of chimeric IgG
T3 construct: also called cynoTNFR2-His; His-tag-cynoTNFR2
T3 chain: T1 sequence with S16G, S36P, P117Q, N164H, E210A, S216G, M223V
Method: TNFR2 binding of purified recombinant chimeric antibodies: The huTNFR2, cynoTNFR2 antigen binding ELISA was performed on the purified recombinant chimeric antibodies. Briefly, 384-well, clear, flat bottom, high binding plates (VWR, cat #29444-096) were coated overnight at 4° C. with 1 μg/mL of huTNFR2 or cynomolgus monkey TNFR2-His in PBS. After removing the coating solution, the plates were blocked by adding blocking buffer and incubated at room temperature for 1 hour. Plates were then washed 3 times with wash buffer. Serial dilution of purified antibodies in PBS was added to individual well followed by incubation at room temperature for 1 hour. Plates were washed 3 times with wash buffer. Then 50 μL/well of goat anti hu Kappa —AP (Southern Biotech, cat #2061-04) at 1:3000 dilution or goat anti human IgG Fc-AP at 1:3000 dilution in ELISA diluent was added, incubated at room temperature for 1 hour, washed 5 times with wash buffer and developed for 30 minutes with 50 μL/well of pNPP substrate. Plates were analyzed with a Bio-TEK at 405 nm. The chimeric TNFR2 antibodies were tested positive for binding to huTNFR2 and cynoTNFR2. The TNFR2 binding EC50 values are shown in Table 6, FIG. 1A (for huTNFR2) and FIG. 1B (for cynoTNFR2).

[4] = biological target: T3, cynomolgus monkey TNFR2 extracellular …; assay: BLI (Octet RED96), antibody captured on AHC biosensor, His-tagged TNFR2 in solution, 1:1 model
Method: as §1, with “0 μg/mL) and His-tag-cynoTNFR2 (2.5, 0.5 and 0 μg/mL) for 420” for “0 μg/mL) for 420”, “Savitzky-Golay filtering.” for “Savitzky-Golay filtering. The dissociation constant (Kd) was calculated as the ratio of Koff/Kon.”

[5] = biological target: T4, cynomolgus monkey TNFR2 extracellular domain as used in the blocking ELISA (cynomolgus monkey, UniProt P20333 23-257 (human entry)); assay: blocking ELISA: antibody pre-mixed with cynoTNFR2, binding of cynoTNFR2 to coated cynomolgus monkey TNFα read out
T4 construct: also called cynoTNFR2
T4 chain: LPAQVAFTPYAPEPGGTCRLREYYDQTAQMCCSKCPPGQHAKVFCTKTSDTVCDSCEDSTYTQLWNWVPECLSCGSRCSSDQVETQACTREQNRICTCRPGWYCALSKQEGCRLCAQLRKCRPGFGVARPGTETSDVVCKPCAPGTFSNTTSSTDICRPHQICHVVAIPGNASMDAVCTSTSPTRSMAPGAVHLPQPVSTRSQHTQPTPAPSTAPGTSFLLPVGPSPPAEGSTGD
Method: 96-well round bottom ELISA plates were coated overnight at 4° C. with 50 μL/well of 0.5 μg/mL human TNFα recombinant protein (R&D system, Cat #210-TA-100) in coating buffer. After removing the coating solution, blocking buffer was added into the plates followed by incubation at room temperature for 1 hour in order to block unspecific binding. During the blocking period, hybridoma antibodies samples were mixed with 0.5 μg/mL TNFR2-huFc at a 1:1 volume ratio and incubated at room temperature for another 1.5 hours. Then 50 μL/well of antigen-antibody mix solution was transferred into TNFα coated wells and incubated at room temperature for 1.5 hours. Plates were then washed 5 times with wash buffer. Then, 50 μL/well of goats anti-human IgG Fc-AP (Southern Biotech, cat #2014-04) at 1:2000 dilution in assay buffer was added, incubated at room temperature for 1 hour, washed 4 times with wash buffer and developed for 30 minutes with 50 μL/well of pNPP substrate. Plates were analyzed with a Synergy HT (Bio-TEK) at 405 nm. Parental hybridomas with the desired human and cynoTNFR2 binding as well as the ability to block human TNFR2 and human TNFα binding were prioritized for subcloning and further characterization. Subcloning was carried out with limited dilution and visual inspection was performed to ensure clonality. Hybridoma subclones were screened with the same binding and blocking assays and selected positive hits were cryopreserved.
TNFR2 blocking by purified recombinant chimeric antibodies: Human TNFR2 blocking ELISA was performed on purified recombinant chimeric antibodies following the same protocol as described above, except that 50 μL/well of serial dilution of purified antibodies (starting at 10 μg/mL, 1:3 dilution) in assay buffer was added into the reaction. The blocking IC₅₀ value represents the antibody concentration that inhibited 50% of huTNFR2 or cynoTNFR2 binding to coated human TNFα or cynomolgus monkey TNFα.

[6] = biological target: T1, human TNFR2 extracellular domain with …; assay: BLI (Octet RED96), antibody captured on AHC biosensor, His-tagged TNFR2 in solution, 1:1 model
Method: as §1, with “0 μg/mL) and His-tag-cynoTNFR2 (2.5, 0.5 and 0 μg/mL) for 420” for “0 μg/mL) for 420”, “Savitzky-Golay filtering.” for “Savitzky-Golay filtering. The dissociation constant (Kd) was calculated as the ratio of Koff/Kon.”

B1: SB1901-68 humanized anti-TNFR2 antibody (antibody, V domains shown)
VH: QVQLVQSGAEVKKPGASVKVSCKASGYTFTDDYIDWVRQATGQGLEWIGEIYPGSGNTYYNEKFKGRVTMTRDTSISTAYMELSSLRSEDTAVYYCARSQVYGKIAMDHWGQGTLVTVSS
VL: DIVMTQSPDSLAVSLGERATINCRASESVDNSGNSFMHWYQQKPGQPPKLLIYRASNLESGVPDRFSGSGSRTDFTLTISSLQAEDVAVYYCQQSKEDPYTFGQGTKVEIK
**Q.** How did the Kd [1] turn out when B1 was run?
**A.** 1.95 nM

**Q.** And the koff [1]?
**A.** 0.000796 s⁻¹

**Q.** And the kon [1]?
**A.** 408000 M⁻¹ s⁻¹

B2: SB1901-69 humanized anti-TNFR2 antibody (antibody, V domains shown)
VH: B1 VH with I48M, T74K
VL: B1 VL with S71A, R72G
**Q.** With B2 as the binder, how does the Kd [1] read?
**A.** 1.25 nM

**Q.** What about the koff [1] of the same binder?
**A.** 0.000513 s⁻¹

**Q.** And the kon [1]?
**A.** 410000 M⁻¹ s⁻¹

B3: SB1901-78 (antibody, V domains shown)
VH: B1 VH with R72A, T74K
VL: B1 VL
notes: humanized version of 51B5; also called SB1901-78 humanized anti-TNFR2 antibody
**Q.** B3 was tested. Which “EC50 (read off the curve)” value [2] did it give?
**A.** ~0.6 nM

B4: SB1901-80 humanized anti-TNFR2 antibody (antibody, V domains shown)
VH: B1 VH with T41P, I76T, A79V
VL: B1 VL
**Q.** For B4, which “EC50 (read off the curve)” value [2] is on record?
**A.** ~0.6 nM

**Q.** What about the Kd [1] of the same binder?
**A.** 2.52 nM

**Q.** And the koff [1]?
**A.** 0.000937 s⁻¹

**Q.** What about the kon [1] of the same binder?
**A.** 373000 M⁻¹ s⁻¹

B5: SB1901-82 (antibody, V domains shown)
VH: B1 VH with T41P, I48M, I76T, A79V
VL: B1 VL
notes: humanized version of 51B5; also called SB1901-82 humanized anti-TNFR2 antibody
**Q.** For B5, which “EC50 (read off the curve)” value [2] is on record?
**A.** ~0.6 nM

B6: SB1901-74 (antibody, V domains shown)
VH: B1 VH with D73N, S75A
VL: B1 VL
notes: humanized version of 51B5; also called SB1901-74 humanized anti-TNFR2 antibody
**Q.** How did the “EC50 (read off the curve)” value [2] turn out when B6 was run?
**A.** ~0.6 nM

B7: 51B5 chimeric anti-TNFR2 antibody (antibody, V domains shown)
VH: QVQLQQSGAELARPGTSVKLSCKASGYTFTDDYIDWVKQRTGQGLEWIGEIYPGSGNTYYNEKFKGKATLTADKSSSTAYMQLSSLTSEDSAVYFCARSQVYGKIAMDHWGQGTSVTVSS
VL: DIVLTQSPASLAVSLGQRATISCRASESVDNSGNSFMHWYQQIPGQPPKLLIYRASNLESGIPARFSGSGARTDFTLTIDPVGAVDVATYYCQQSKEDPYTFGGGTKLEIE
notes: Chimeric: mouse variable domains with human constant regions, made as recombinant IgG1
**Q.** Which EC50 [3] does the source give for B7 here?
**A.** 0.0494 nM

**Q.** And the Kd [4]?
**A.** 0.672 nM

**Q.** What about the koff [4] of the same binder?
**A.** 0.00065 s⁻¹

**Q.** What about the kon [4] of the same binder?
**A.** 967000 M⁻¹ s⁻¹

**Q.** And the IC50 [5]?
**A.** 0.968 nM

B8: 6F12 chimeric anti-TNFR2 antibody (antibody, V domains shown)
VH: QIQLVQSGPELKKPGETVKISCKTSGYTFTIYGMNWVKQAPGKGLKWMGWIHTYTGEPTYADDFKGRFVFSLETSDSTAYLQINNLKSEDMATYFCVRRERYGSFWGQGTLVTVSA
VL: DIVLTQSPASLAVSLGQRATISCTASQSVDYGGVSYMNWYQQKPGQPPKLLIYGASNQESGIPVRFSGSGSGTDFTLNIHPVEEEDAATYYCQQSNEDPPTFGAGTKLELK
notes: as for B7
**Q.** Which results are given for B8?
**A.** Kd [6]: 3.77 nM; koff [6]: 0.000886 s⁻¹; kon [6]: 239000 M⁻¹ s⁻¹
